Common to all, as to assay: BLI, 50C stress
The target in one assay is T1, hMPV075 (hMPV A, UniProt Q6WB98 19-102).
T1 construct: L473F

The next assay concerns the target T2, hMPV052 (hMPV A, UniProt Q6WB98 19-102).
T2 construct: L66P

The next assay concerns the target T3, hMPV062 (hMPV A, UniProt Q6WB98 19-102).
T3 construct: G121A

Another assay addresses T4, hMPV058 (hMPV A, UniProt Q6WB98 19-102).
T4 construct: L187P

The next assay has as its target T5, hMPV061 (hMPV A, UniProt Q6WB98 19-102).
T5 construct: G106A

For the next assay, the target named is T6, hMPV069 (hMPV A, UniProt Q6WB98 19-102).
T6 construct: S291I

In another assay the target is T7, hMPV048 (hMPV A, UniProt Q6WB98 19-102).
T7 construct: L141C-A161C

Another assay has as its target T8, hMPV077 (hMPV A, UniProt Q6WB98 19-102).
T8 construct: Q476C, S477C

The text below walks through data of patent US20240252614A1 (Pfizer, published 2024).

Experimental for hMPV048: (§1) The OCTET HTX (Sartorius, Gottingen, Germany) instrument was used to evaluate the expression and conformational integrity for each mutant. All measurements were conducted at 30° C. temperature in 96-well black plates (Corning, Corning, NY) with a final volume of 240 μL per well at a constant agitation rate of 1000 RPM.
(§2) Conformation integrity of hMPV A F protein mutants were evaluated by thermal stress experiments. Crude cell culture supernatants were normalized based on the results of the titer quantitation and then incubated for 1 hour at room temperature and two higher temperatures. […] Anti-Human IgG Fc Capture (AHC) biosensors were first equilibrated in PB before being dipped into more PB to establish the initial baseline. […] The mAb-bound biosensors were then dipped into the thermal stressed cell culture supernatants for 5 minutes. The kinetics analysis was done by OCTET data analysis software (version 12.0, Sartorius) based on curve fitting of the entire associate step.
Experimental for hMPV052: as §1, §2
Experimental for hMPV058: as §1, §2
Experimental for hMPV061: as §1, §2
Experimental for hMPV062: as §1, §2
Experimental for hMPV069: as §1, §2
Experimental for hMPV075: as §1, §2
Experimental for hMPV077: as §1, §2

B1: hMPV-2 mAb (antibody, V domains shown)
VH: QVQLQQSGAEVKKPGASVKVSCKASGYTFTSYGISWVRQAPGQGLEWMGWISGYNGNTNYAQTFQGTFTMTTDTSTSTAYMELRRLRSGDTAVYYCARDRYYASGSYNGMDVWGQGTTVTVSS
VL: QSALTQPPSASGAPGQRVTVSCSGSSSNVGSSSVYWYQQLPGTAPKLLIYRNNQRPSGVPDRFSGSKSGTSASLAISGLRSEDEADYYCAAWDDSLSGWVFGGGTKLTVLG
notes: human IgG1
For the molecule B1, the “Response Shift” value with hMPV075 is 0.653 nm; in the assay with hMPV052, 0.634 nm; with hMPV062 it was 0.46 nm; with hMPV058, 0.494 nm; with hMPV061, 0.561 nm; in the assay with hMPV069 it was 0.465 nm. Also, the “Response Shift” value in the assay with hMPV048 is 0.439 nm; with hMPV077, 0.635 nm.
